Where two headings read alike, the source gives them in different places. Values belong to the binder of their own block, whether it stands above or below them.
How the values were obtained:
[1] = target: T1, Human Tau 2N4R, wild type, recombinant full length (human, UniProt P10636 2-758); assay: direct ELISA on coated 2N4R Tau
T1 construct: Full length 2N4R isoform; monomer in SPR and ELISA; heparin-induced aggregates or seeds in the functional assays; also called Tau441; Tau-441
Procedure: To test direct binding to Tau, 2N4R Tau was coated on 96-well plates and various concentrations of humanized mAbs were added to the wells. MAbs bound to Tau were detected with either an HRP-conjugated anti-mouse antibody (mouse [ms]7G6) or anti-human antibody (remaining samples). Samples were incubated for 1 h at room temperature in 96-well plates coated with 2N4R Tau. Following washing, HRP-conjugated anti-mouse or anti-human detection antibodies were added to the wells. The anti-mouse antibody was used to detect ms7G6. The amount of HRP activity in each well was measured by QuantaBlu fluorescent substrate and the RFUs were detected by a SpectraMax M5 plate reader.
Tau binding was analyzed by a direct ELISA as above. Samples were incubated for 1 hour at room temperature in 96-well plates coated with wild-type 2N4R Tau. After a wash step, HRP-conjugated anti-mouse or anti-human detection antibodies were added to the wells. The anti-mouse antibody was used to detect ms7G6. The amount of HRP activity in each well was measured by QuantaBlu fluorescent substrate and the RFUs were detected by a SpectraMax M5 plate reader. […] Therefore, Vκ Glu34 was critical for antigen binding.

[2] = target: T1, Human Tau 2N4R, wild type, recombinant …; assay: direct ELISA on coated 2N4R Tau; remark: listed apart in the source

T1 sequence (P10636 other isoform, or with tags, fused parts or gaps limits assumed): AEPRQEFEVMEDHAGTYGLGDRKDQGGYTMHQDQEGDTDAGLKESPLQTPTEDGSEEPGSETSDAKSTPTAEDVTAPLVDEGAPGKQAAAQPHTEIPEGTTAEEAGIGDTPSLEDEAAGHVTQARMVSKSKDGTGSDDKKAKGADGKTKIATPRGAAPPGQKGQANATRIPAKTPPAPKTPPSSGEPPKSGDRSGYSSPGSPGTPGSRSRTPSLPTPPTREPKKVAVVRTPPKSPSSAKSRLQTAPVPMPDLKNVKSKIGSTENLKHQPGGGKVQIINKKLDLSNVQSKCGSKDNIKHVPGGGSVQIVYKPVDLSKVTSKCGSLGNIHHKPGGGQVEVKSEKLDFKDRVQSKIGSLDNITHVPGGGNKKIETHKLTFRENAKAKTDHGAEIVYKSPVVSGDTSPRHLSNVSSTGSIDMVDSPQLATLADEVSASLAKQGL

- binding result [1]: no binding
B1: 7G6-HCzu5-LCzu9 (antibody, human IgG1, kappa, V domains shown)
VH: QVQLVQSGAEVKKPGASVKVSCKASGYTFTTYWITWVRQAPGQGLEWMGDIYPGSSISNYNEKFKSRVTMTVDTSTSTAYMELSSLRSEDTAVYYCAREDGYDAWFAYWGQGTLVTVSS
VL: DVVMTQSPLSLPVTLGQPASISCRSSQSIVHSNGNTYLNWFQQRPGQSPRRLISKVSNRFSGVPDRFSGSGSGTDFTLKISRVEAEDVGVYYCFQGSHVPFTFGQGTKLEIKR
notes: humanized, human IgG1 kappa; also called 7G6-LCzu9

- binding result [2]: no binding
B2: 7G6-HCzu12-LCzu17 (antibody, human IgG1, kappa, V domains shown)
VH: EVQLLESGGGLVQPGGSLRLSCAASGYTFTTYWITWVRQAPGKGLEWVGDIYPGSSICNYNEKFKSRFTISVDNSKSTAYLQMNSLRAEDTAVYYCAREDGYDAWFAYWGQGTLVTVSS
VL: DVQMTQSPSSLSASVGDRVTITCRSSQSIVHSNGNTYLNWYQQKPGKAPKLLISKVSNRFSGVPSRFSGSGSGTDFTLTISSLQPEDFATYYCFQGSHVPFTFGQGTKLEIKR
notes: humanized, human IgG1 kappa; also called 7G6-LCzu17

Reference: patent US20190112365A1 (EISAI R AND D MANAGEMENT, published 2019)
